The test concerns the target biotinylated SARS-CoV-2 RBD (SARS-CoV-2) (UniProt P0DTC2). Nature of the test: flow cytometry on antigen-coated beads. A general note: A flow cytometer gives signals particle by particle.

One may read the EC50 as the concentration needed to bring the measured effect to its halfway point. Read a low EC50 as a more potent agent.

B1: 12H2 (antibody, V domains shown)
VH: EVQLQESGPGLVKPSQSLFLTCTVTGYSITSDYAWNWIRQFPGNKLEWMGYITYSGSTSYNPSLKSRISITRDTSKNQFFLQLNSVTTEDTATYYCARGDGYFFPLDYWGQGTTLTVSS
VL: DIVMTQSPSSLSVSAGEKVTMSCKSSQSLLNSGNQKSYLAWYQQRPGQPPKLLIYGASTRESGVPDRFTGSGSGTDFTLTISSVQAEDLAVYYCQNDHSYPPTFGAGTKLELK
As for B1, the EC50 was 0.066 nM.

B2: 13I1 (antibody, V domains shown)
VH: EVQLQESGPGLVKPSQSLSLTCTVTGYSITSDYAWNWIRQFPGNKLEWMGYITYSGSTSYNPSLRSRISITRDTSKNQFFLQLNSVTSEDTATYYCARGDGYYFPLDYWGQGTTLTVSS
VL: DIVMTQSPSSLSVSAGEKVTMSCKSSQSLLNGGNQKSYLAWYQQKPGQPPKLLIYGASTRESGVPDRFTGSGSGTDFTLTISSVQAEDLAVYYCQNDHSYPPTFGAGTKLELK
The molecule B2 gave a concentration giving a half-maximal response (EC50) of 0.082 nM.
